In patent publication US20120225028A1, “COMPOSITIONS AND METHODS FOR MOBILIZATION OF STEM CELLS” (priority 2011, published 2012):

Assays:
[1] = test system: GM-CFC; test: Hematopoietic progenitor colony forming assay of WBC from treated mice; format: in vivo; conditions: for Number of GM-CFC (n = 3): median colony number per 200,000 cells plated, methylcellulose culture, 10 days of incubation, triplicate cultures; for Type of colonies formed in cultures of WBC: methylcellulose colony assay
Experimental: WBC from treated mice were also plated in standard hematopoietic progenitor colony forming assays. Colony formation from cultures of 200,000 cells per 35 mm petri dishes were scored at 10 days of culture.
The median colony number pre 200,000 cells plated is presented from 3 triplicate cultures containing 1 ml of methycellulose plus rmIL-3, rmGM-CSF, rrSCF and rhG-CSF.

[2] = test system: mesenchymal stem cells; test: Mouse model of mobilization: MSC formation in culture of peripheral blood WBC from treated mice; format: in vivo; conditions: for Stromal cell formation in cultures of WBC: SP 10 μg/kg or rhG-CSF 250 ug/kg i.p. for 4 days, PB harvested on fifth day; for Stromal cell formation in cultures of WBC / MSC / adherent stromal cell formation after 5 to 7 days of culture: 35 mm wells; for MSC / adherent stromal cell formation after 5 to 7 days of culture / MSC foci after 10 days of culture: SP 10 μg/kg, i.p. 4 days; for MSC / adherent stromal cell formation after 5 to 7 days of culture: rhG-CSF 250 μg/kg or both; for MSC foci after 10 days of culture: rhG-CSF 250 μg/kg
Experimental: To evaluate the potential of different mobilization agents, a mouse model of mobilization was used. Groups of mice (n=5) were treated with cytokines or mobilization agents and peripheral blood harvested into heparin containing tubes. The blood was treated with ammonium chloride to lyse the red cells and the white cells plated in 6 well plates treated with gelatin and evaluated for MSC formation at various time points.
Mice were injected intraperitoneally with 250 ug/kg of rhG-CSF (Amgen Inc, Thousand Oaks, Calif.) or normal saline for 5 days and PB harvested on the fifth day. The white cells were plated in media from Stem Cell Technologies (Vancouver, Canada) for culture of mesenchymal stem cells with murine supplements.
Mice (groups of 5 mice per treatment arm) were injected intraperitoneally with 10 μg/kg of Substance P (Sigma-Aldrich, St Louis, Mo.) or with 250 ug/kg of rhG-CSF for 4 days and PB harvested on the fifth day. The white cells were plated in media from Stem Cell Technologies (Vancouver, Canada) for culture of mesenchymal stem cells with murine supplements.
Mice (groups of 5 mice per treatment arm) were injected intraperitoneally with 10 μg/kg of Substance P (Sigma-Aldrich, St Louis, Mo.), with 250 μg/kg of rhG-CSF, or the combination of 10 μg/kg SP plus 250 μg/kg rhG-CSF for 4 days and PB harvested on the fifth day. The white cells were plated in media from Stem Cell Technologies (Vancouver, Canada) for culture of mesenchymal stem cells with murine supplements.

[3] = test system: peripheral blood WBC; test: Peripheral blood WBC counts of treated mice; format: in vivo; conditions: 7 day treatment
Experimental: G-CSF mobilization increases the circulating WBC count in mice and humans with typical counts approximately 25,000 to 30,000 WBC/μl. The effects of the combination of SP+G-CSF on peripheral WBC in treated mice was evaluated.
The different effects on peripheral WBC count of mobilization agents used were established.

[4] = test system: MSCs or MSC precursors; test: Culture of rhG-CSF mobilized peripheral blood from normal donors under MSC conditions; format: in vivo; conditions: normal human donors mobilized with G-CSF, standard MSC culture
Experimental: Normal unmobilized PB and PB from normal donors mobilized with rhG-CSF was obtained and the potential of the MNCs to generate MSCs was evaluated. When placed in standard culture there was development of adherent cells that appeared like adipocyte cells and endothelial cells (FIG. 1).

[5] = test system: peripheral blood WBC; conditions: mice and humans, general statement; cited from earlier work

## Substance P (RPKPQQFFGLM; printed: Arg Pro Lys Pro Gln Gln Phe Phe Gly Leu Met) [SP, Sigma-Aldrich, reference compound]
[1]
  Number of GM-CFC (n = 3): 5
  Type of colonies formed in cultures of WBC: colonies containing both hematopoietic and MSC cells
[2]
  Stromal cell formation in cultures of WBC: generated adherent stromal cells after 5 to 7 days with several foci
  MSC / adherent stromal cell formation after 5 to 7 days of culture: a few adherent stromal cells
  MSC foci after 10 days of culture: several MSC foci
[2]; WBC from SP treated mice
  Blast like cells on cytospin slides of WBC: increase in blast like cells
[3]
  Effect on peripheral blood WBC levels: no significant effect

B1: rhG-CSF: recombinant human granulocyte colony-stimulating factor (Amgen) (protein, UniProt P09919 31-207, looked up)
Granulocyte …: TPLGPASSLPQSFLLKCLEQVRKIQGDGAALQEKLVSECATYKLCHPEELVLLGHSLGIPWAPLSSCPSQALQLAGCLSQLHSGLFLYQGLLQALEGISPELGPTLDTLQLDVADFATTIWQQMEELGMAPALQPTQGAMPAFASAFQRRAGGVLVASHLQSFLEVSYRVLRHLAQP
[4]
  MSC formation from mobilized peripheral blood cells: no evidence of MSC formation
[4]; listed as G-CSF
  MSC formation from mobilized peripheral blood cells: fail to generate mesenchymal stem cells
[5]
  Typical circulating WBC count after mobilization: 25,000 to 30,000 WBC/μl
[1]
  Number of GM-CFC (n = 3): 26
  Type of colonies formed in cultures of WBC: Typical hematopoietic colonies
[2]; 250 ug/kg intraperitoneally for 5 days, PB harvested on the fifth day
  Adherent cells in cultures of WBC: failed to proliferate and resembled endothelial cells not MSCs
[2]
  Stromal cell formation in cultures of WBC: no stromal cell formation evident
  MSC / adherent stromal cell formation after 5 to 7 days of culture: one area with MSC cells
  MSC foci after 10 days of culture: one foci
